Measured values reported in patent US20070128190A1 (GLENMARK PHARMACEUTICALS S A, published 2007).

Assays:
[1] = target: T1, human platelet α2β1 integrin (immobilized on microtiter plates) (human, UniProt P17301 30-1181; P05556 21-798); assay: competition with Eu-humanized TMC-2206 on α2β1-coated plates
T1 construct: plates custom-coated with human platelet α2β1 by GTI Inc; also called immobilized α2β1 integrin; α2β1-coated plates
From the text: The inhibition curves were fitted with the “one site competition” model using Prism software (GraphPad, Inc.) to obtain IC₅₀ values and to calculate the Kᵢ using the equation of Cheng and Prusoff (1973) and the respective values for KD from above.
The cloning of the human, rhesus macaque, rat, and mouse α2 I domains were described in Example 12. Cynomolgus and additional rhesus monkey α2 I domains were cloned from cDNA derived from total RNA extracted from skin tissue (MediCorp, Inc., Montreal, QC).

[2] = target: T1, human platelet α2β1 integrin …; assay: competition with Eu-humanized TMC-2206 on human platelet α2β1-coated plate
Method: The MAb/bicarbonate mixture (0.250 mL) was gently mixed into a vial containing 0.2 mg N¹-(p-isothiocyanatobenzyl)-diethylenetriamine-N¹,N²,N³,N³-tetraacetic acid chelated with Eu³⁺ (Eu-N1-ITC; Perkin Elmer Life Sciences) and incubated overnight at 4° C. without stirring. The labeled antibody mixture was applied to a PD-10 column (GE Biosciences, Piscataway, N.J.) pre-equilibrated with Running Buffer (50 mM Tris, pH 7.4 and 138 mM NaCl). Fractions (0.5 mL) were collected and assayed for total protein (Bradford reagent; Bio-Rad Laboratories, Hercules, Calif.) using a SpectraMax 384 absorbance plate reader and for europium after 1:10.000 dilution in DELFIA Enhancement Solution (Perkin-Elmer) by time-resolved fluorescence (TRF) using a Victor2 multi-label plate reader (Perkin Elmer). The fractions that were positive for both protein and europium label were pooled, applied to a new PD-10 column, and samples collected and assayed for total protein and for europium content by TRF calibrated against a europium standard solution (Perkin-Elmer) to calculate the fluor : protein ratio. […] The plate was shaken (Titer Plate Shaker, speed setting of 5, 5 minutes at room temperature) and TRF intensities were read using the Victor2 multi-label plate reader. The KD values were calculated by Scatchard analyses.

[3] = target: T2, GST-human α2 I domain fusion protein (human, UniProt P17301 153-368); assay: Eu-TMC-2206 on immobilized GST-α2 I domain at 37 °C, Scatchard
T2 construct: the reverse primer ends at ...SIEGTV; also called GST-α2 I domain; hα2I; not shown: glutathione S-transferase tag encoded by vector pGEX-2TK
T2 sequence: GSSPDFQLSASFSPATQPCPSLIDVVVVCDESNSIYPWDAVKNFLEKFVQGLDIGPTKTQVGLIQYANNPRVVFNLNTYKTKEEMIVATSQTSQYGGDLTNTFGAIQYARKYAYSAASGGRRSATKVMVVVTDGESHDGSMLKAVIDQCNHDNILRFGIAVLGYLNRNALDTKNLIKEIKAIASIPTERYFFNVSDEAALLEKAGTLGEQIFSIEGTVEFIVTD

[4] = target: T1, human platelet α2β1 integrin …; assay: competition with Eu-TMC-2206 on human platelet α2β1-coated plate
Method: Exemplary IgG1 antibodies have a hVH 14.0 γ heavy chain (SEQ ID NO:181) or a hVH12.0 γ1 heavy chain (SEQ ID NO:182) and a hVL10.0Q light chain (SEQ ID NO:178). Exemplary IgG4 antibodies have a hVH14.0 γ4 heavy chain (SEQ ID NO:174) or a hVH12.0 γ4 heavy chain (SEQ ID NO:176) and a hVL 10.0Q light chain (SEQ ID NO:178). Purified antibodies were tested in the competition assay to compare potency by Kᵢ values as well as in the cell adhesion to collagen assay, where potency is measured as EC₅₀ values.

[5] = target: T1, human platelet α2β1 integrin …; assay: equilibrium binding of Eu-labelled antibody to human platelet α2β1-coated plate, Scatchard
Method: Wells in a 96-well microtiter plate were coated with platelet α2β1-integrin (custom-coated with human platelet α2β1 by GTI Inc., WI) and then blocked with nonfat milk. […] After concentration in prewashed MicroSep concentrators [30-kDa cutoff; Pall Life Sciences at 9500 rpm (7000×g) in a JA-20 rotor (Beckman Instruments, Inc.] for 20 minutes at 4° C.), the antibody was adjusted to 4.0 mg/mL with PBS, 100 mM NaHCO₃, pH 9.3. The MAb/bicarbonate mixture (0.250 mL) was gently mixed into a vial containing 0.2 mg N¹-(p-isothiocyanatobenzyl)-diethylenetriamine-N¹,N²,N³,N³-tetraacetic acid chelated with Eu³⁺ (Eu-N1-ITC; Perkin Elmer Life Sciences) and incubated overnight at 4° C. without stirring. The labeled antibody mixture was applied to a PD-10 column (GE Biosciences, Piscataway, N.J.) pre-equilibrated with Running Buffer (50 mM Tris, pH 7.4 and 138 mM NaCl). Fractions (0.5 mL) were collected and assayed for total protein (Bradford reagent; Bio-Rad Laboratories, Hercules, Calif.) using a SpectraMax 384 absorbance plate reader and for europium after 1:10.000 dilution in DELFIA Enhancement Solution (Perkin-Elmer) by time-resolved fluorescence (TRF) using a Victor2 multi-label plate reader (Perkin Elmer). […]

[6] = target: human α2β1 integrin on human cells (platelets, leukocytes, HT1080) (human, UniProt P17301 30-1181; P05556 21-798); assay: cell-based or functional assay
[7] = target: T2, GST-human α2 I domain fusion protein; assay: SPR (Biacore 2000), antibody captured, GST-α2 I domain in solution

Row | Binder | Ki [1] | Ki [2] | Kd [3] | Ki [4] | Kd [5] | EC50 (nm), human platelets on human placenta Type I collagen (n = 1) [6] | Kd [7] | koff [7] | kon [7]
1 | TMC-2206 (antibody, mouse IgG1, V domains shown, murine IgG1/κ secreted by hybridoma BHA2.1; labelled with Eu-N1-ITC where used as tracer; also called BHA2.1) VH: QVQLKESGPGLVAPSQSLSITCTVSGFSLTNYGIHWVRQPPGKGLEWLGVIWARGFTNYNSALMSRLIITKDNSQSQVFLKMNSLQPDDSATYFCARANDGVYYAMDYWGQGTSVTVSS VL: QFVLTQSPAFLSASPGEKVTMTCSANSSVNYIHWYQQKSGTSPKKWIYDTSKLASGVPVRFSGSGSGTSYSLTISSMETEDAATYYCQQWTTNPLTFGAGTRVELK | 0.14 nM | 0.21 nM | 0.2 nM | 0.22 nM | 0.72 nM | 8.44 nM | 2.9 nM | 0.0011 s⁻¹ | 380000 M⁻¹ s⁻¹
2 | Humanized TMC-2206 (hIgG4/κ VH12.0/VL10.0Q) (antibody, labelled with Eu or Alexa-488 in some assays) heavy: not shown light: DFVMTQSPAFLSVTPGEKVTITCSAQSSVNYIHWYQQKPDQAPKKLIYDTSKLASGVPSRFSGSGSGTDYTFTISSLEAEDAATYYCQQWTTNPLTFGQGTKVEIKRTVAAPSVFIFPPSDEQLKSGTASVVCLLNNFYPREAKVQWKVDNALQSGNSQESVTEQDSKDSTYSLSSTLTLSKADYEKHKVYACEVTHQGLSSPVTKSFNRGEC | 0.34 nM | 0.41 nM |  | 0.27 nM | 1.29 nM | 13.1 nM | 2.3 nM | 0.00082 s⁻¹ | 350000 M⁻¹ s⁻¹
